B1: MPBS-52: IL-22-GLP-1R ligand fusion protein, sequence in FIG. 36, made by Novo Nordisk A/S (protein)
chain: DLSKQMEEEAVRLFIEWLKNGGPSSGAPPPSGGSSSGGGSSSGGGSSSGGGSSSGAPISSHCRLDKSNFQQPYITNRTFMLAKEASLADNNTDVRLIGEKLFHGVSMSERCYLMKQVLNFTLEEVLFPQSDRFQPYMQEVVPFLARLSNRLSTCHIEGDDLHIQRNVQKLKDTVKKLGESGEIKAIGELDLLFMSLRNACIGGSHHHHHH
modifications: MPBS-52 - fusion protein comrpsing a GLP-1 ligand and IL-22
B2: MPBS-51: IL-22-GLP-1R ligand fusion protein, sequence in FIG. 36, made by Novo Nordisk A/S (protein)
chain: EGTFTSDVSSYLEGQAAKEFIAWLVKGRGGGSSSGGGSSSGGGSSSGGGSSSGAPISSHCRLDKSNFQQPYITNRTFMLAKEASLADNNTDVRLIGEKLFHGVSMSERCYLMKQVLNFTLEEVLFPQSDRFQPYMQEWPFLARLSNRLSTCHIEGDDLHIQRNVQKLKDTVKKLGESGEIKAIGELDLLFMSLRNACIGGSHHHHHH
modifications: MPBS-51 - fusion protein comrpsing a GLP-1 ligand and IL-22
B3: MPBS-50: IL-22-GLP-1R ligand fusion protein, sequence in FIG. 36, made by Novo Nordisk A/S (protein)
chain: EGTFTSDVSSYLEGQAAKEFIAWLVKGRHGEGTFTSDVSSYLEGQAAKEFIAWLVKGRAPISSHCRLDKSNFQQPYITNRTFMLAKEASLADNNTDVRLIGEKLFHGVSMSERCYLMKQVLNFTLEEVLFPQSDRFQPYMQEVVPFLARLSNRLSTCHIEGDDLHIQRNVQKLKDTVKKLGESGEIKAIGELDLLFMSLRNACIGGSHHHHHH
modifications: MPBS-50 - fusion protein comrpsing a GLP-1 ligand and IL-22

Experiments:
[1] = test system: Murine MIN6N8 cells; test: ERAI-sXBP1 reporter ER stress in MIN6N8 cells with 0.5 mM palmitate; type: cell-based; details: for ER stress caused by the protein alone: 15.4 nM, no palmitate; for ER stress caused by the protein alone / protection from palmitate-induced ER stress: 24 hours; for protection from palmitate-induced ER stress: co-treated with 0.5 mM palmitate, increasing concentrations; for in vitro efficacy for suppression of ER and oxidative stress (conclusion): murine and human cells
Protocol: (§1) Cell culture: Murine MIN6N8 cells were tested negative for mycoplasma. Cells were routinely cultured in phenol-red free DMEM (Life Technologies) containing 25 mM glucose (3.4 g/L sodium bicarbonate, 50 U/mL penicillin and streptomycin, 71.5 μM β-mercaptoethanol and 10% heat inactivated fetal bovine serum) and transferred to DMEM as above with 5.5 mM glucose 48 h prior to experimentation. Human LS174T cells were cultured in DMEM containing 10% heat-inactivated fetal bovine serum, 50 U mL^−1 penicillin and streptomycin.
ER Stress Measurement: MIN6N8 cells were transfected with the ERAI reporter plasmid (F-XBP1ΔDBD-venus, using Lipofectamine 2000 according to the manufacturer's instructions. For ERAI there was negligible fluorescence in the absence of ER stressors, but upon induction of ER stress, splicing of XBP1 mRNA by IRE1a results in the translation of Venus but not an active form of XBP1. Fluorescence was measured (excitation: 485 nm; emission: 520 nm) using a POLARstar Omega plate reader and cells were treated 48 h after transfection. […] After 24 h, ERAI-sXBP1 GFP reporter fluorescence was measured.

[2] = Clearance of IL-22 and IL-22 fusion proteins from serum; type: in vivo, C57BL/6 mice; details: 256 ng/g human IL-22 or molar equivalents, i.p.
Protocol: (§2) Targeting to IL-22 to pancreas: Non-obese male C57BL/6 at 6-8 weeks of age. Each IL-22-GLP-1R ligand fusion protein or hIL-22 was administered i.p. at 256 ng/g of IL-22 and the molar equivalents for the individual fusion proteins (n=3 per regimen). IL-22-ScaB1 was administered at […]. Control mice received a PBS control i.p. injection only.
Serum concentrations of IL-22 and the IL-22-GLP-1R ligand fusion proteins were determined using a human IL-22 double-determinant ELISA (Biolegend; 434505) against a standard curve for the individual fusion proteins.

[3] = test system: mice with high fat diet induced obesity; test: Dose-finding efficacy study (IPGTT) in mice on a high fat diet for 27 weeks; type: in vivo, C57BL/6 male mice
Protocol: C57BL/6 male mice from 6-8 weeks of age were fed a high fat diet containing 46% of available energy as saturated fat, 34% carbohydrate, 20% protein (Speciality feeds, SF04-027) for 27 weeks and treated as follows:
IL-22-GLP-1R ligand fusion protein or IL-22 alone were administered twice weekly i.p. at the following doses: 1, 4, 16, 64 and 256 ng/g of IL-22 (0.12-15.4 nmoles/g) and the molar equivalents for IL-22-GLP-1 fusion proteins (n=3 per regimen, except for the lowest dose where n=2); control mice received PBS control only. A fasted Intraperitoneal glucose tolerance tests (IPGTT) was performed (2 g kg-i glucose) on day 14 when the experiment was terminated (tissues were not kept for analysis). Body weight was recorded on days 0, 5, 10 and 13.

[4] = test system: Human LS174T cells; test: Oxidative stress (nitrite, Griess assay) in LS174T cells with 0.5 mM palmitate; type: cell-based; details: 2 h prior to 0.5 mM palmitate for 30 min
Protocol: as §1
The Griess Reagent Kit for Nitrite Determination was performed according to the manufacturer's instructions (Molecular Probes) to assess the intracellular levels of nitrite (the stable metabolite of nitric oxide) using lysates of β-cells prepared in RIPA buffer (150 mM NaCl, 1% NP40, 0.5% sodium deoxycholate, 0.1% SDS, 50 mM Tris, pH 7.5).

[5] = test system: STAT3 phosphorylation; test: pStat3 staining in pancreatic islets vs liver, intestine and skin; type: in vivo, C57BL/6 mice; details: for pStat3 ratio pancreatic islets vs intestine, fold change relative to human IL-22 / pStat3 ratio pancreatic islets vs liver, fold change relative to human IL-22 / pStat3 ratio pancreatic islets vs skin, fold change relative to human IL-22: molar equivalent of 256 ng/g IL-22, 30 min
Protocol: as §2
To assess in vivo activation of the IL-22 receptor signaling pathway, after 30 min the mice were sacrificed and the following tissues were snap frozen and sections were prepared for each mouse: pancreas, skin (ear, tail), colon (rolled), and liver. Sections were stained by immunofluorescence for phosphorylated STAT3 using the Phospho-Stat3 (Tyr705) (D3A7) antibody.

| Molecule | ER stress caused by the protein alone [1] | fold more protein required for the same effect as recombinant mouse IL-22 in reducing ER stress ([1]; murine MIN6N8 cells, 0.5 mM palmitate, 24 h) [fold] | clearance / serum concentration over the first 2 hours [2] | body weight changes during treatment ([3]; days 0, 5, 10 and 13) | mean reduction in the increased AUC of the IPGTT of HFD vs normal chow fed control mice ([3]; doses >0.96 nmoles/g, two-week therapy) [%] | efficacy in IPGTT below 0.96 nmoles/g ([3]; two lowest doses) | protection from palmitate-induced ER stress [1] | in vitro efficacy for suppression of ER and oxidative stress (conclusion) [1] | protection from palmitate-induced oxidative stress (nitrite production) [4] | pStat3 ratio pancreatic islets vs intestine, fold change relative to human IL-22 [5] | pStat3 ratio pancreatic islets vs liver, fold change relative to human IL-22 [5] | pStat3 ratio pancreatic islets vs skin, fold change relative to human IL-22 [5] | STAT3 phosphorylation in tissues in vivo ([5]; 30 min after administration) |
| --- | --- | --- | --- | --- | --- | --- | --- | --- | --- | --- | --- | --- | --- |
| human IL-22: recombinant human IL-22 | did not cause ER stress | ~16 | cleared slightly more slowly | little change in body weight | > 50 | diminished substantially |  |  |  |  |  |  |  |
| B1 | did not cause ER stress |  | lower and somewhat more extended/later peak concentration |  |  |  | effectively suppressed ER stress | have retained in vitro efficacy | effectively suppressed oxidative stress with a similar efficacy to equivalent molar concentrations of human IL-22 | 338 fold | 396 fold | 4,840 fold |  |
| B2 | did not cause ER stress |  | lower and somewhat more extended/later peak concentration |  |  |  | did not effectively suppress ER stress at any of the concentrations tested | appears inactive in-vitro | did not effectively suppress oxidative stress at any of the concentrations tested | not greater than for native human IL-22 | not greater than for native human IL-22 | 113 fold | did induce STAT3 phosphorylation in the pancreas as well as liver and gut |
| B3 | did not cause ER stress |  | cleared with similar kinetics to recombinant human IL-22 |  |  |  | inhibited ER stress in a dose dependent manner at a similar efficacy to a molar equivalent concentration of human IL-22 | have retained in vitro efficacy | inhibited oxidative stress (nitrite production) but only toward the highest end of the concentration range used | not greater than for native human IL-22 | not greater than for native human IL-22 | 45 fold |  |
